In article PMC2847215:
Like-named read-outs stand apart in the source and are kept apart here.

Tests used:
Assay in all cases: EMSA
[1] = molecular target: T1, rMcrA-S (UniProt P24200 1-277)
T1 sequence: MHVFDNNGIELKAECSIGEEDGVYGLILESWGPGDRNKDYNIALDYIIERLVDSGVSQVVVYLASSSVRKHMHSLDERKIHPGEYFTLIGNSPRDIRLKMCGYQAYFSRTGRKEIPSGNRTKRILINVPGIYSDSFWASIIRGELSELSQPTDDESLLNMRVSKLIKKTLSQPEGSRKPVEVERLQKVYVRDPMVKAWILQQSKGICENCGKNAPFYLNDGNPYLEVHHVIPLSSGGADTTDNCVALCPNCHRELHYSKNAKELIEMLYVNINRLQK

[2] = molecular target: T1, rMcrA-S; remark: listed apart in the source
[3] = molecular target: T1, rMcrA-S; remark: listed apart in the source
[4] = molecular target: T1, rMcrA-S; remark: listed apart in the source

B1: TCGG cassette (dsDNA)
DNA 1: CCCTCTGTCGGAGGAGGCTCCTGC
DNA 2: GCAGGAGCCTCCTCCGACAGAGGG
modifications: m5C9 strand 1, m5C15 strand 2 (M.SssI)
binding result [1]: binds

B2: CCGA cassette (dsDNA)
DNA 1: CCCTCTGCCGAAGGAGGCTCCTGC
DNA 2: GCAGGAGCCTCCTTCGGCAGAGGG
modifications: m5C9 strand 1, m5C15 strand 2 (M.SssI)
binding result [1]: binds

B3: CGG and ACGG cassette (dsDNA)
DNA 1: CCCTCTGACGGAGGAGGCTCCTGC
DNA 2: GCAGGAGCCTCCTCCGTCAGAGGG
modifications: m5C9 strand 1, m5C15 strand 2 (M.SssI)
binding result [2]: binds

B4: unmethylated cassette (oligos 7/8) (dsDNA)
DNA 1: GCCTTCAGCGCCGGCGGATCCAGT
DNA 2: ACTGGATCCGCCGGCGCTGAAGGC
binding result [3]: no binding

B5: CGA and ACGA cassette (dsDNA)
DNA 1: CCCTCTGACGAAGGAGGCTCCTGC
DNA 2: GCAGGAGCCTCCTTCGTCAGAGGG
modifications: m5C9 strand 1, m5C15 strand 2 (M.SssI)
binding result [2]: binds

B6: CGC cassette (dsDNA)
DNA 1: CCCTCTGACGCAGGAGGCTCCTGC
DNA 2: GCAGGAGCCTCCTGCGTCAGAGGG
modifications: m5C9 strand 1, m5C15 strand 2 (M.SssI)
binding result [3]: no binding

B7: GCGA cassette (dsDNA)
DNA 1: CCCTCTGGCGAAGGAGGCTCCTGC
DNA 2: GCAGGAGCCTCCTTCGCCAGAGGG
modifications: m5C9 strand 1, m5C15 strand 2 (M.SssI)
binding result [2]: binds

B8: TCGA cassette (dsDNA)
DNA 1: CCCTCTGTCGAAGGAGGCTCCTGC
DNA 2: GCAGGAGCCTCCTTCGACAGAGGG
modifications: m5C9 strand 1, m5C15 strand 2 (M.SssI)
binding result [1]: binds

B9: CGT cassette (dsDNA)
DNA 1: CCCTCTGACGTAGGAGGCTCCTGC
DNA 2: GCAGGAGCCTCCTACGTCAGAGGG
modifications: m5C9 strand 1, m5C15 strand 2 (M.SssI)
binding result [3]: no binding

B10: cassette CCGG, single symmetric m5C in HpaII site (dsDNA)
DNA 1: GCCTTCAGCGCCGGCGGATCCAGT
DNA 2: ACTGGATCCGCCGGCGCTGAAGGC
modifications: m5C12 in strand 1 and m5C12 in strand 2 (positions from site name)
binding result [4]: binds

B11: C/A mismatch cassette (dsDNA)
DNA 1: GCCTTCAGCGCCGGCGGATCCAGT
DNA 2: ACTGGATCCGCCAGCGCTGAAGGC
modifications: m5C12 in strand 1 only
binding result [3]: no binding

B12: GCGG cassette (dsDNA)
DNA 1: CCCTCTGGCGGAGGAGGCTCCTGC
DNA 2: GCAGGAGCCTCCTCCGCCAGAGGG
modifications: m5C9 strand 1, m5C15 strand 2 (M.SssI)
binding result [2]: binds

B13: CCGG cassette (oligos 17/18) (dsDNA)
DNA 1: CCCTCTGCCGGAGGAGGATCCTGC
DNA 2: GCAGGATCCTCCTCCGGCAGAGGG
modifications: m5C9 strand 1, m5C15 strand 2 (M.SssI)
binding result [1]: binds

B14: C/G hemimethylated HpaII cassette (dsDNA)
DNA 1: GCCTTCAGCGCCGGCGGATCCAGT
DNA 2: ACTGGATCCGCCGGCGCTGAAGGC
modifications: m5C12 in strand 1 only
binding result [3]: binds
